Test results: patent US20200079833A1 (AstraZeneca / MedImmune, published 2020)
Starred links: 1 amine or outer side, 2 acyl side, 3 side chain; linkers in the order of their positions; H or OH if unused. Non-standard residues stand in square brackets, D forms with d. Groups on a side chain read outwards from the residue. Primed or numbered codes have the meaning given here. No end group written: not given here. *: point of attachment. Dodecanoyl(12-OPh(4-COOH)) = O=C(O)c1ccc(OCCCCCCCCCCCC(=O)*)cc1; γGlu = O=C(O)[C@H](CCC(=O)[*:2])N[*:1]; αMeF = C[C@](N)(Cc1ccccc1)C(=O)O; αMeK = C[C@](N)(CCCCN)C(=O)O; Lauroyl = CCCCCCCCCCCC(=O)*; αMeS = C[C@](N)(CO)C(=O)O; PEG2′ = not defined here; Aib = CC(C)(N)C(=O)O; Ahx = NCCCCCC(=O)O

B1: SEQ ID NO 133 (peptide)
peptide: H[Aib]EGS[αMeF]TSDV[αMeS]S[αMeF]LEGEAAK([Ahx-Ahx-Ahx-Lauroyl])E[αMeF]IA[αMeF]VV[αMeK]GG-NH2
modifications: N-terminus assumed
SMILES: CCCCCCCCCCCC(=O)NCCCCCC(=O)NCCCCCC(=O)NCCCCCC(=O)NCCCC[C@H](NC(=O)[C@H](C)NC(=O)[C@H](C)NC(=O)[C@H](CCC(=O)O)NC(=O)CNC(=O)[C@H](CCC(=O)O)NC(=O)[C@H](CC(C)C)NC(=O)[C@](C)(Cc1ccccc1)NC(=O)[C@H](CO)NC(=O)[C@](C)(CO)NC(=O)[C@@H](NC(=O)[C@H](CC(=O)O)NC(=O)[C@H](CO)NC(=O)[C@@H](NC(=O)[C@](C)(Cc1ccccc1)NC(=O)[C@H](CO)NC(=O)CNC(=O)[C@H](CCC(=O)O)NC(=O)C(C)(C)NC(=O)[C@@H](N)Cc1c[nH]cn1)[C@@H](C)O)C(C)C)C(=O)N[C@@H](CCC(=O)O)C(=O)N[C@@](C)(Cc1ccccc1)C(=O)N[C@H](C(=O)N[C@@H](C)C(=O)N[C@@](C)(Cc1ccccc1)C(=O)N[C@H](C(=O)N[C@H](C(=O)N[C@@](C)(CCCCN)C(=O)NCC(=O)NCC(N)=O)C(C)C)C(C)C)[C@@H](C)CC
B2: SEQ ID NO 138 (peptide)
peptide: H[Aib]EGS[αMeF]TSDV[αMeS]S[αMeF]LEGEAAK([γGlu-γGlu-Dodecanoyl(12-OPh(4-COOH))])E[αMeF]IA[αMeF]VV[αMeK]GG-NH2
modifications: N-terminus assumed
SMILES: CC[C@H](C)[C@H](NC(=O)[C@](C)(Cc1ccccc1)NC(=O)[C@H](CCC(=O)O)NC(=O)[C@H](CCCCNC(=O)CC[C@H](NC(=O)CC[C@H](NC(=O)CCCCCCCCCCCOc1ccc(C(=O)O)cc1)C(=O)O)C(=O)O)NC(=O)[C@H](C)NC(=O)[C@H](C)NC(=O)[C@H](CCC(=O)O)NC(=O)CNC(=O)[C@H](CCC(=O)O)NC(=O)[C@H](CC(C)C)NC(=O)[C@](C)(Cc1ccccc1)NC(=O)[C@H](CO)NC(=O)[C@](C)(CO)NC(=O)[C@@H](NC(=O)[C@H](CC(=O)O)NC(=O)[C@H](CO)NC(=O)[C@@H](NC(=O)[C@](C)(Cc1ccccc1)NC(=O)[C@H](CO)NC(=O)CNC(=O)[C@H](CCC(=O)O)NC(=O)C(C)(C)NC(=O)[C@@H](N)Cc1c[nH]cn1)[C@@H](C)O)C(C)C)C(=O)N[C@@H](C)C(=O)N[C@@](C)(Cc1ccccc1)C(=O)N[C@H](C(=O)N[C@H](C(=O)N[C@@](C)(CCCCN)C(=O)NCC(=O)NCC(N)=O)C(C)C)C(C)C
B3: SEQ ID NO 137 (peptide)
peptide: H[Aib]EGS[αMeF]TSDV[αMeS]S[αMeF]LEGEAAK([γGlu-Dodecanoyl(12-OPh(4-COOH))])E[αMeF]IA[αMeF]VV[αMeK]GG-NH2
modifications: N-terminus assumed
SMILES: CC[C@H](C)[C@H](NC(=O)[C@](C)(Cc1ccccc1)NC(=O)[C@H](CCC(=O)O)NC(=O)[C@H](CCCCNC(=O)CC[C@H](NC(=O)CCCCCCCCCCCOc1ccc(C(=O)O)cc1)C(=O)O)NC(=O)[C@H](C)NC(=O)[C@H](C)NC(=O)[C@H](CCC(=O)O)NC(=O)CNC(=O)[C@H](CCC(=O)O)NC(=O)[C@H](CC(C)C)NC(=O)[C@](C)(Cc1ccccc1)NC(=O)[C@H](CO)NC(=O)[C@](C)(CO)NC(=O)[C@@H](NC(=O)[C@H](CC(=O)O)NC(=O)[C@H](CO)NC(=O)[C@@H](NC(=O)[C@](C)(Cc1ccccc1)NC(=O)[C@H](CO)NC(=O)CNC(=O)[C@H](CCC(=O)O)NC(=O)C(C)(C)NC(=O)[C@@H](N)Cc1c[nH]cn1)[C@@H](C)O)C(C)C)C(=O)N[C@@H](C)C(=O)N[C@@](C)(Cc1ccccc1)C(=O)N[C@H](C(=O)N[C@H](C(=O)N[C@@](C)(CCCCN)C(=O)NCC(=O)NCC(N)=O)C(C)C)C(C)C

What follows are binders tested against T1, glucose-dependent insulinotropic peptide (gastric inhibitory polypeptide) receptor (GIPR) (human, UniProt P48546 22-466) (assay: cell-based or functional assay).
T1 sequence (looked up): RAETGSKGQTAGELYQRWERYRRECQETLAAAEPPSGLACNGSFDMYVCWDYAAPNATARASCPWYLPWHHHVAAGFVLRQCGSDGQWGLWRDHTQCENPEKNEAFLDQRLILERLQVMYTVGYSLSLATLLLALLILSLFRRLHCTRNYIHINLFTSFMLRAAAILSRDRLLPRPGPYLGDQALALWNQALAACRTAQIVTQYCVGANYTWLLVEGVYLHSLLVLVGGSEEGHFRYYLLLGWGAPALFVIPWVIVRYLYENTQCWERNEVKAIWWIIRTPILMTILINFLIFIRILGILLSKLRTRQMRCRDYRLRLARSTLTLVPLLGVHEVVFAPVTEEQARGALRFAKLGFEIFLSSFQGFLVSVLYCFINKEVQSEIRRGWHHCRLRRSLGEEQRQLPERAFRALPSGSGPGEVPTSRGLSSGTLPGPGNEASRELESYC

Row | Binder | cAMP Primary assay EC50 GIP-R [nM] | cAMP Primary assay EC50 GIP-R (2nd) [nM]
1 | B1 | 27 | 27
2 | H[Aib]EGS[αMeF]TSDV[αMeS]S[αMeF]LEGEAAK([PEG2′-Lauroyl])E[αMeF]IA[αMeF]VV[αMeK]GG-NH2 [SEQ ID NO 134] | 28 | 28
3 | H[Aib]EGS[αMeF]TSDV[αMeS]S[αMeF]LEGEAAK([PEG2′-PEG2′-PEG2′-Lauroyl])E[αMeF]IA[αMeF]VV[αMeK]GG-NH2 [SEQ ID NO 136] | 26 | 26
4 | B2 | 26 | 26
5 | H[Aib]EGS[αMeF]TSDV[αMeS]S[αMeF]LEGEAAK([PEG2′-PEG2′-Lauroyl])E[αMeF]IA[αMeF]VV[αMeK]GG-NH2 [SEQ ID NO 135] | 27 | 27
6 | B3 | 27 | 27

The binders below were run against GLP-1 receptor (GLP-1R) (human, UniProt P43220 24-463) (assay: cell-based or functional assay).

Row | Binder | cAMP Mean pM GLP-1R [pM] | cAMP Primary assay EC50 GLP-1R n1 [nM] | cAMP Primary assay EC50 GLP-1R n2 [nM]
7 | B1 | 29.4 | 0.034 | 0.025
8 | H[Aib]EGS[αMeF]TSDV[αMeS]S[αMeF]LEGEAAK([PEG2′-Lauroyl])E[αMeF]IA[αMeF]VV[αMeK]GG-NH2 [SEQ ID NO 134] | 6 | 0.007 | 0.0049
9 | H[Aib]EGS[αMeF]TSDV[αMeS]S[αMeF]LEGEAAK([PEG2′-PEG2′-PEG2′-Lauroyl])E[αMeF]IA[αMeF]VV[αMeK]GG-NH2 [SEQ ID NO 136] | 3 | 0.0035 | 0.0025
10 | B2 | 17.2 | 0.019 | 0.015
11 | H[Aib]EGS[αMeF]TSDV[αMeS]S[αMeF]LEGEAAK([PEG2′-PEG2′-Lauroyl])E[αMeF]IA[αMeF]VV[αMeK]GG-NH2 [SEQ ID NO 135] | 5 | 0.0054 | 0.0045
12 | B3 | 5.2 | 0.0066 | 0.0038

These binders were tested against glucagon receptor (GCGR) (human, UniProt P47871 26-477) (assay: cell-based or functional assay).
Chain of glucagon receptor (GCGR) (P47871 26-477): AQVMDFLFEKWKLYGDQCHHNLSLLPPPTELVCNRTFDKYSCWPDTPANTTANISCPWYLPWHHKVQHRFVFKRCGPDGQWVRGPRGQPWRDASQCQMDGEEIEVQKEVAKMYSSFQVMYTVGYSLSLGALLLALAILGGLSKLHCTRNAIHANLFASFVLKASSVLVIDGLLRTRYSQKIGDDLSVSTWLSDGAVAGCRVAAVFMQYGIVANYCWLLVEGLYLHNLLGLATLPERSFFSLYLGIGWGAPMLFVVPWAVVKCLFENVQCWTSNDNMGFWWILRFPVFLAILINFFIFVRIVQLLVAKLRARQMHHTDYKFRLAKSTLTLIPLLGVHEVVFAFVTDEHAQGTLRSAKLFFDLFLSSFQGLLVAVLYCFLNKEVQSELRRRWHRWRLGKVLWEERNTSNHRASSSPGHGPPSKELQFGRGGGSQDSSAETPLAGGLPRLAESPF

Row | Binder | cAMP Primary assay EC50 Gluc-R [nM] | cAMP Primary assay EC50 Gluc-R (2nd) [nM]
13 | B1 | 27 | 27
14 | H[Aib]EGS[αMeF]TSDV[αMeS]S[αMeF]LEGEAAK([PEG2′-Lauroyl])E[αMeF]IA[αMeF]VV[αMeK]GG-NH2 [SEQ ID NO 134] | 28 | 28
15 | H[Aib]EGS[αMeF]TSDV[αMeS]S[αMeF]LEGEAAK([PEG2′-PEG2′-PEG2′-Lauroyl])E[αMeF]IA[αMeF]VV[αMeK]GG-NH2 [SEQ ID NO 136] | 26 | 26
16 | B2 | 26 | 26
17 | H[Aib]EGS[αMeF]TSDV[αMeS]S[αMeF]LEGEAAK([PEG2′-PEG2′-Lauroyl])E[αMeF]IA[αMeF]VV[αMeK]GG-NH2 [SEQ ID NO 135] | 27 | 27
18 | B3 | 27 | 27
